Target: T1, fibrinogen (Homo sapiens, UniProt P02671)
T1 construct: purchased Enzyme Research Laboratories (South Bend, Ind.)
T1 sequence (P02671 20-644 isoform P02671-2 limits assumed): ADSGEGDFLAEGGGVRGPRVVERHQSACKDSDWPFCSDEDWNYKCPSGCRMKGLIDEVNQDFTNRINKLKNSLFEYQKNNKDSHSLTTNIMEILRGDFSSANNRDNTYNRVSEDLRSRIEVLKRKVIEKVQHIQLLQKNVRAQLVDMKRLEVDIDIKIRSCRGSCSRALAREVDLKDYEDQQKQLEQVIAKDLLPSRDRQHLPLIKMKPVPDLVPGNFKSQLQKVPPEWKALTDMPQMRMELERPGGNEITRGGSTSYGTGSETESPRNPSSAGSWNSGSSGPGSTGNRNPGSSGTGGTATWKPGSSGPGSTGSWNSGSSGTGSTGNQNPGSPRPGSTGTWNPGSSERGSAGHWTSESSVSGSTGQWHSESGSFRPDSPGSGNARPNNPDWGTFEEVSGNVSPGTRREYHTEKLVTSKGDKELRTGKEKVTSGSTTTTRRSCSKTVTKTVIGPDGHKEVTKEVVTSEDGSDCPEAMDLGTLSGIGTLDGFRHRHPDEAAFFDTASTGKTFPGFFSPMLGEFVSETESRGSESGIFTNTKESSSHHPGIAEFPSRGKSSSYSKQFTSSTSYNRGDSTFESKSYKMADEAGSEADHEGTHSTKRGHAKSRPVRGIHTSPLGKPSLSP
T1 sequence (P02675 31-491 partner): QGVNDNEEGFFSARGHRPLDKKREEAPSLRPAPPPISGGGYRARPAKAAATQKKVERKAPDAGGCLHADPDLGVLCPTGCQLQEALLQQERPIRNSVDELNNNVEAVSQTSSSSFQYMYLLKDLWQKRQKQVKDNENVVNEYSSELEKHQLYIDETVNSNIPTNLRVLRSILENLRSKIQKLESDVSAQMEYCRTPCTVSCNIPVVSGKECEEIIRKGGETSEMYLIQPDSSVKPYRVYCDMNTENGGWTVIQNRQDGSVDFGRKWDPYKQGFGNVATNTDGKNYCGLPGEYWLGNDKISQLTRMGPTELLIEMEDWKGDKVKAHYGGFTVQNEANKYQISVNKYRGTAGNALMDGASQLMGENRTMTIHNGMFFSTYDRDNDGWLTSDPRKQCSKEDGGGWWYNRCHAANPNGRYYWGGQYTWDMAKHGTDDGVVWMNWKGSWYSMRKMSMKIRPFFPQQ
T1 sequence (P02679 27-437 isoform P02679-2 partner limits assumed): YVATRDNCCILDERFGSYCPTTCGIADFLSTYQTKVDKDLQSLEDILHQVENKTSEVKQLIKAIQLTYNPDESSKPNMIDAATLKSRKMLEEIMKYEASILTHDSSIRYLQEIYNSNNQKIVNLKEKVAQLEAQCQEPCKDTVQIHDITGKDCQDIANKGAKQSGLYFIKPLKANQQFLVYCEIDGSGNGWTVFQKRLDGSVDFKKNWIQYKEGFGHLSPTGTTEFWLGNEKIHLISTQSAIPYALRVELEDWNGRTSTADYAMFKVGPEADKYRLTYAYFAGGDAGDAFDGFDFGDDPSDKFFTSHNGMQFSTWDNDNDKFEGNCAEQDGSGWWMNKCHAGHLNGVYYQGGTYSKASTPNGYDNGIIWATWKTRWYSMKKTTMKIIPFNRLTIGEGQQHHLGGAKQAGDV
Assay: Solid-phase binding assay (ELISA), immobilized fibrinogen
Experimental: The interaction between thymosin β4 and fibrin(ogen) and its fragments in the presence or absence of FXIIIa was studies by ELISA using plastic microliter plates. Wells of microliter plates were coated overnight at […] with fibrinogen and fibrin at 10 μg/mL or with the recombinant fragments of 20 μg/ml, all in 0.1 M NaHCO3 buffer, pH 8.3. Fibrin was made by addition to the wells of a mixture containing 10 μg/mL fibrinogen 1 NIH u/ml thrombin and 400 u/ml aprotinin, followed by overnight incubation at +4° C. The wells were then blocked by incubation with Super Blocker (Pierce) at 37° C. for 1 h. Following washing with TBS containing 0.05% Tween-20 (TBS-Tween), the indicated concentrations of thymosin β4, FXIII, FXIIIa(Thr) and FXIIIa(Ca) were added to the wells and incubated for 2-2.5 h at 37° C. Bound (incorporated) thymosin β4 was detected by the reaction with rabbit anti-thymosin β4 serum and peroxidase-conjugated anti-rabbit IgG. A TMB Microwell Peroxidase Substrase was added to the wells, and the incorporated thymosin β4 was measured spectrophotometrically at 450 nm.

In the case of thymosin β4, the “factor XIIIa-mediated incorporation into immobilized fibrinogen (ELISA signal)” value (factor XIII activated by CaCl2) is reported as “the signal substantially increased” and the “non-covalent interaction with immobilized fibrinogen (ELISA signal)” value (thymosin β4 150 μg/mL (30 μm), absence of factor XIII or non-activated factor XIII) is reported as “no significant non-covalent interaction”.
